The nanobody polyreactivity screen of Harvey et al. (2022)

Experiment: yeast display, Sf9 membrane polyspecificity reagent, FACS + sequencing; frameworks hold sequencing errors
Method in brief: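 Synthetic nanobody libraries on Saccharomyces cerevisiae BJ5465 were galactose-induced for 36–48 hours, stained 1 hour at 4 °C with 10% biotinylated, detergent-solubilized Sf9 membrane reagent and enriched on streptavidin microbeads. FACS then separated cells into low and high (top ~1%) gates by anti-HA (expression) and streptavidin (reagent binding) fluorescence. Genes were colony-PCR amplified, MiSeq 2 × 250 sequenced and CDR-length filtered. A clone's polyreactivity label is that of its gate of origin.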

QVQLVESGGGLVQAGGSLRLSCAASGFTFEYYAMGWYRQAPGKEREFVAAISARGDSTYYADSVKGRFTISRDNAKNTVYLQMNSLKPEDSAVYYCAKKTSPRRYYYWGQGTQVTVSS
polyreactivity (PSR sort gate): high polyreactivity

QVQLVESGGGLVQAGGSLRLSCAASGNIFYVYAMGWYRQAPGKERELVATITWRGGNTYYADSVKGRFTISRDNAKNTVDLQMNSLTPEDTAVYYCAAYVGYTRAYIGQFYAYDYWGQGTQVTVSS
polyreactivity (PSR sort gate): low polyreactivity

QVQLVESGGGLVQAGGSRRLSCAASGRIFTYYAMGWYRQAPGKERELVAAISSGGSTYYADSVKGRFTISRDNAKNTVYLQMNSLKPEDTAVYYCAAAGGYYGVNWRGDSWGQGTQVTVSS
polyreactivity (PSR sort gate): high polyreactivity

QVQLVESGGGLVQAGGNLRLSCAASGNIFYVYAMGWYRQAPGKERELVAAITRSGGRTYYADSVKGRFTISRDNAKNTVYLQMTSLKPEDTAVYYCAADRGVTRQKMDYWGQGTQVTVSS
polyreactivity (PSR sort gate): low polyreactivity

QFQLVESGGGLVQAGGSLRLSCAASGSILVPNDMGWYRQAPGKEREFVAAITESDGSTYYADSVKGRFTISRDNAKNTVYLQMNSLKPEDTAVYYCASDSTGVTFVHFDYWGQGTQVTVSS
polyreactivity (PSR sort gate): low polyreactivity

QVQLVESGGGLVQAGGSLRLSCAASGSTFHSYAMGRYRQAPGKEREFVAAITIRGGSTYYADSVKGRFTISRDNAKNTVYLQMNSLKPEDTAVYYCAALVWGSYARWRYYWGQGTQVTVSS
polyreactivity (PSR sort gate): high polyreactivity

QVQLVESGGGLVQAGGSLRLICAASGSIFHVNSMGWYRQAPGKERELVAGISDGGSTYYADSVKGRFTISRDNAKNTVYLQMNSLKPEDTAVSYCAAESEQWYSYVLSYDWEYDYWGQGTHVTVSS
polyreactivity (PSR sort gate): low polyreactivity

QVQLVESGGGLVQAGGSLRLSCAASGFTFGGYARGWSRQAPRTERELVAAISSSAGRTYYADSVKGRFTISRDNAKNTVYVQMNRLKPEDTAVYYCNTGGVYGPRRYYYWGQGTQVTVSS
polyreactivity (PSR sort gate): high polyreactivity

QVQLVESAGGLVQAGGSLRLSCAASGIIFIYYTMGWYRQAPGKERELVAVITTSGDGTYYADSVKGRFTISRDNAKNTVYFQMNSLKPEDTAVYYCAASYSTWVSSRNDYWGQGTQVTVSS
polyreactivity (PSR sort gate): low polyreactivity

QVQLVESGGGLVQAGGSLRLSCAASGITFYKYVMGWYRKAPGKERELVAAISSVGSTYYADSVKGRFTISRDNAKNTVYLQMNSLKPEDTAVYYCAAKYWKWYHYGFGYWGQGTQVTVSS
polyreactivity (PSR sort gate): high polyreactivity

QVQLVESGGGLVQAGGSLRLSCAASGITYYNAMGWYRQAAGKERELVARISWSSVSTYYADSVKGRFTISRDNAKNTVYLQMNSLKPEDTAVYYCAAEVRGSDYDYWGQGTQLTVSS
polyreactivity (PSR sort gate): high polyreactivity

QVQLVESGGGLVQAGGSLRLSCAASGFIFAGYAMGWYRQAPGKERELVAAISRRGGRTNYADSVKGRFTISRDNAKNTVYLQMNSLKPEDTAVFYCAAVQASVYYGLGRFDYWGQGTQVTVSS
polyreactivity (PSR sort gate): high polyreactivity

QVQLVESGGGLVQAGGSLRLSCAASGFIFYYYAMGWYRQAPGKERELVAAISSGDDTTYADSVKGRFTISRDNAKNTVYLKMNSLKPEDTAVYYCNSERSVKQQGPYGYWGQGTQVTVSS
polyreactivity (PSR sort gate): low polyreactivity

QVQLVESGGGLVQAGGSLRLICAASGRIFYSYSMGWSRPAPGKERELVATITTSGKTYYADSVNGRFTISRDNAKNTVYLQMNSLIPDDTAVYYCNAGWDLVYGYYPRRKIFDYWGQGTQVTVSS
polyreactivity (PSR sort gate): high polyreactivity

QVQLVESGGGLVQAGGSLRLSCAASGFIIYYYAMGWYRQAPGKERELVARISRRGGSTYYADSVKGRFTISRDNAKNTVYLQMNSLKPEDTAVYYCNAERRYSWYSQGDYWGQGTQVSVSS
polyreactivity (PSR sort gate): high polyreactivity

QVQLLESGGGLVQAGGSLRLSCAASGLIMVYYTMGWYRQAPGKERELVASISKSGGRTYYADSVKGRFTISRDNAKNTVYLQMNSLKPEDTAVYYCAAQRVQYSRRDYWGQGTQVTVSS
polyreactivity (PSR sort gate): high polyreactivity

QVQLVESGGGLVQAGGSLRLSCAASGSILYSNAMGWYRQAPGKERELVAVITWGGGSTYYADSVKGRFTISRDNAKNTVFLQMNSLKPEDTAVYYCAARARRGLRAYVELDYWGQGTQVTVSS
polyreactivity (PSR sort gate): low polyreactivity

QDQLVESGGGLVQAGGSLRLSCSATGRIFRSYAMGWYRQAPGKERELVASITWRGSSTYYADSVKGRFTISRDNAKNTVYLQMNSRKPEDTAVYYCAKEGYLYLWRYDYWGQGTQVTVSS
polyreactivity (PSR sort gate): high polyreactivity

QVQLVESGGGLVQARGSLRLSCAASGSTFVTYAMGWYRQAPGKERELVAAITWSGGGTYYADSVKGRFTISRDNAKNTVYLQMNSLKPEDTAVYYCNRPAAVGDEDYWGQGTQVTVSS
polyreactivity (PSR sort gate): low polyreactivity

QFQLVESGGGLVQAGGSLRLSCADSGSIFLLYVMGWYRQAPGKERELVAAISSGGSTNYADSVKGRFTISRDNAKNTVYLQMNSLKPEDTAVYYCNAVAVPQGVKLYDYWGQGTQVTVSS
polyreactivity (PSR sort gate): low polyreactivity

QVQLVESGGGLVQAGGSLRLSCAASGIIFAYYAMGWYRQAPGKERELVASISSGGTTKYADSVKGRFTISRDNAKNTVYLQMNSLKPEDTAVYYCAAEHRWRSWDMDYWGQGTQVTVSS
polyreactivity (PSR sort gate): low polyreactivity

QVQLVESGGGLVQAGGSLRLSCAASGSTFTGNAMGWYRQAPGKERELVASISTGGSTNYADSVKGRFTISRDNAKNTVYLQMNSLKPEDTAVYYCATDYCFKDSVVDFDYWGQGTQVTVSS
polyreactivity (PSR sort gate): low polyreactivity

QVQLVESGGGLVQAGGSLRLSCAASGITFLDNVMGWYRQAPGKERELVADINSIGTSTSYADSVKGRFTISRDNAKNTVYLQMNSLKPEDTAVYYCAADTGLEDYDYWGQGTQVTVSS
polyreactivity (PSR sort gate): low polyreactivity

QVQLEESGGGIVQAGGSLRLSCASSGFIFKAYAMVWSRQAPGKERDLVAVITGSSGRTYADSVKGRFTISRDNAKNTVYLQMNSLKPEDTAVYYCAADLRKSKYRYWRRYDYWGQGTQVTVSS
polyreactivity (PSR sort gate): high polyreactivity

QVQLVESGGGLVQAGGRLRLICAASGFIFGTYAMGWYRQAPGKEREFDAAINWGGGRTYYADSVKGRFTISRDNAKNTVYLQMISLKAEDTAVYYCNIRLIYYRGSYYSLRFDYWGQGTQVTLSS
polyreactivity (PSR sort gate): high polyreactivity

QVHLVESGGGLVQAGGSLRLSCAASGRTFIFYAMRWYRQAPGKERELVATISRSAGSTYYADSVKGRFTISRDNAKNTVYLQMNSLKPEDTAVYYCATQSRHYRGGKYYYWGQGTQVSVSS
polyreactivity (PSR sort gate): high polyreactivity

QVQLVESGGGLVQAGGSLRLICAASGRTLAPNAMGWYRQAPGKERELVATITRGGTTNYADSVKGRFTISRDNAKNTVYLQMNSLKPEDTAVYYCAKAHYLGYYQRYDYWGQGTQVTVSS
polyreactivity (PSR sort gate): low polyreactivity

QVQHVESVGGLVQAGGSLRLSCASSGRTLFYYTMRWYRQARGTERELVAAISSGDSTNYADSVKGRFTISRDNAKNTVYLHMNSLKPEDTAVYYCAARFYQIRRRYDYWGQGTQVTVSS
polyreactivity (PSR sort gate): low polyreactivity

QVQLVESGGGLVQAGGSLRLSCAASGSTFSGYAMRWYRPAPGKERELVAAISWSGGSTYYADSVKGRFTISRDNAKNTVYLQMNSLKPEDTSVNYCNALESTIRGYPYDYWGQGTQVTVSS
polyreactivity (PSR sort gate): low polyreactivity

QVKLVESGGGLVQAGGSLRLSCAASGFTFEYYAMGWYRQAPGKERELVAAIRSDSGTNYADSVKGRFTISRDNAKNTVYLQMNSLKPEDTAVYYCAAPTVVLIDYDYWGQGTQVTVSS
polyreactivity (PSR sort gate): low polyreactivity

QVQHVESAGGLVQAGGILRLSCAASGRIFYPYAMGWYRQAPGKERELVAAISSSGGSTYYADSVKGRFTISRDNAKNTVSLQMNSLKPEDTAFYYCNKDFQYYPRIFGYWGQGTQVTVSS
polyreactivity (PSR sort gate): high polyreactivity

QVQLVESGGGLVHAGGSLRLSCAASGSIFGTNAMGWYRQAPGQERELVAAISYSGGSTYYADSVKGRFTISRDPAKNTVYLQMNSLKPDDTAVYYCAKVVRYWWERDYWGKGTQVTVSS
polyreactivity (PSR sort gate): high polyreactivity

QVQLVESGGGLVQAGGSLRLSCAASGIIFDWYDMGWYRQAPGKERELVATITSDDGTNYADSVKGRFTIARDNAKNTVYFQLNSLKPEDTAVYYCAKRLIPSLPILQKMDYWGQGTQVTVSS
polyreactivity (PSR sort gate): low polyreactivity

QVQLVESGGRLVQAGGTLPLSSAASGLIFGYYAMGFYIQAPGKERELDADISSGGSTNYADSVKGRFTISRENAKNTVYLQMNRLTPEDTAVFYCAARYSRWFGYCGQGTQVTVSS
polyreactivity (PSR sort gate): high polyreactivity

QVQLVESGGGLVQAGGSLRLSCAASGRTFVTYAMGWYRPAPGKERELVAAITGSGGRTYYADSVKGRFTISRDNAKLTVYLQMNRLKPEDTAVYYCAKDHPSGRQYDYWGQGTQVTVSS
polyreactivity (PSR sort gate): high polyreactivity

QVQLVESGGGLVQAGGSLRLSSAASGRIIRAYAMGWYRQAPGKERELVADISGGSNTNYADSVKGRFTISRDNAKNTVYLQMNSLKPEDTAVYYCAADAGYWESLWYPYGFYWGQGTQVTVSS
polyreactivity (PSR sort gate): low polyreactivity

QVQLVESGGGLVHAGGSLLLSCAASGSTLRPNAMGWYRKAPGKERELVDAISSGGSTYYADSVKGRFTISRDNAKYSVYLQMNSLKPEDTAVYSCAAASERSGYYYWGQGTQVTVSS
polyreactivity (PSR sort gate): high polyreactivity

QFQLVESGGGLVQAGGSLRLSCAASGRTFGTYAMGWYRQAPGKEREVVAAISTRGGRTFYADSVKGRFTISRDNAKNTVYLQMNSLKPEDTAVYYCAARGTDPGHKYEYWGQGTQVTVSS
polyreactivity (PSR sort gate): high polyreactivity

QVQLVESGGGLVQAGGSLRLSCAASGFIFSFYVMGWYRQAPGKERELVAAISTSGASTYYADSVKGRFTISRDNAKNTVYLQMNSLKPEDTAVFYCNVVYRYGGYNYWGQGTQVTVSS
polyreactivity (PSR sort gate): high polyreactivity

QVQLVESGGGLVQAGGSLRLSCAASGSTFSKYAMGWYRQAPGKERELVATISSTGSTNYADSVKGRFTISRDNEKNTVYLQMNSLKPEDTAVYDCNAGRRGRPYYKYYYWGQGTQVTVSS
polyreactivity (PSR sort gate): high polyreactivity

QVQLVESGGGLVQAGGSLRLSCAASGSTSALYAMGWYRQAPGKERELVATITRSGTTKYADSVKGRFTISRDNAKNTVYLQMNSLKPEDTAVYYCNTDTYFPLYDYWGQGTQVTVSS
polyreactivity (PSR sort gate): low polyreactivity

QVQLVESGGGLVQAGGRLRLSGAASGSIYFRNVMGWYRQAPGKERELVAAITWSGGGTYYPDSVKGRFTISRDNAKNTVYLQMNSLQPEDTAFYYCAARSPTIRYGAGYWGQVTQVTVSS
polyreactivity (PSR sort gate): low polyreactivity

QVQLVESGGGLVQAGGSLRLSCAASGSTFKRYAMGWYRQAPAKERELVASISSGGSTNYADSVKGRFTISRDNAKNTVYLQMNSLKPEDTAVYYCNAVYYCYKGDYWGQGTQVTVSS
polyreactivity (PSR sort gate): high polyreactivity
